Values quoted from earlier work, collected in patent EP4725499A1, “M[…] PROTEIN FOR IMM[…] ALZHEIMER'S DISEASE” (Centro De Neurociencias De Cuba, priority 2023, dated 2024).

Biological target: Aβ (Homo sapiens, UniProt P05067)
Sequence (P05067 672-713 limits assumed): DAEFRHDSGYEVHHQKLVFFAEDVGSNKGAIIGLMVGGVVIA

AN1792: AN1792 vaccine, consisting of a synthetic Aβ1-42 peptide
time after which responders maintained an anti-AN-1792 antibody response (follow-up of responders, 1-3 injections, low titers): approximately 4.6 years
patients who developed an anti-Aβ antibody response (patients with mild to moderate AD, phase II): 19.7%
progression of cognitive decline (responders compared with placebo-treated patients, follow-up): significantly reduced
